The target of assay [1] is mouse IgG, anti-human transferrin monoclonal antibody (mfd. by BIO MATRIX RESEARCH, INC.). Description: direct ELISA, mouse IgG immobilized from 10 ng/ml, about 0.8 µg/ml secondary antibody, ABTS.
For assay [2] the target is unchanged. Description: human transferrin sandwich ELISA, 1 ng/ml transferrin, luminol emission. On the technique in general: An ELISA detects its analyte on a solid surface through an enzyme-linked reagent.
For assay [3] the target is unchanged. Description: direct ELISA, mouse IgG immobilized from 100 ng/ml, about 0.8 µg/ml secondary antibody, ABTS.
The target is the same in assay [4]. The assay can be described thus: human transferrin sandwich ELISA, 1 ng/ml transferrin, luminol emission; reference Comparative Example 7.
The target is the same in assay [5]. The assay can be described thus: human transferrin sandwich ELISA, 100 ng/ml transferrin, ABTS; reference Comparative Example 3.
The target is the same in assay [6]. The assay can be described thus: human transferrin sandwich ELISA, 100 ng/ml transferrin, luminol emission; reference Comparative Examples 6 to 8.
Assay [7] has the same target. Description: human transferrin sandwich ELISA, 100 ng/ml transferrin, 375 ng/ml labeled antibody, ABTS.
Assay [8] has the same target. The assay can be described thus: direct ELISA on immobilized mouse IgG, ABTS; reference Comparative Examples 1 and 2.
Assay [9] shares this target. The assay can be described thus: human transferrin sandwich ELISA, 100 ng/ml transferrin, luminol emission.
Assay [10] shares this target. The assay can be described thus: human transferrin sandwich ELISA, 100 ng/ml transferrin, 400 ng/ml labeled antibody, ABTS.
Assay [11] has the same target. Description: human transferrin sandwich ELISA, 1 ng/ml transferrin, luminol emission; reference horseradish POD-labeled antibodies.

Consider “Peroxidase-conjugated AffiniPure Goat Anti-mouse IgG (H+L) (mfd. by Jackson ImmunoResearch Labs.) (antibody)”, for which the absorbance at 405 nm in [1] amounted to 0.3; in assay [3], 1.4. The initial stage emission value in assay [2] was 100000 RLU.

Regarding “POD-labeled anti-mouse Fab′ (goat anti-mouse IgG (H+L) antibody, Bethyl A90-116A, pepsin-digested and reduced to Fab′, labeled with maleimidated POD)”, the fold of initial stage emission value against the horseradish POD-labeled antibody in assay [4] came to 8 times. Moreover, the absorbance at 405 nm came to 0.4 in assay [1], 1 in assay [7] and 1.9 in assay [3]. The fold of absorbance against the horseradish POD-labeled antibody is 2.2 times in [5] and 1.3 to 1.4 times in assay [8]. Also, the fold of initial stage emission value against the horseradish POD-labeled antibodies in assay [6] was over 18 times. Further, the initial stage emission value in assay [2] came to 800000 RLU; in assay [9] it was 4.2e+06 RLU.

Turning to “Peroxidase-conjugated AffiniPure F(ab′)2 Fragment Goat Anti-mouse IgG (H+L) (mfd. by Jackson ImmunoResearch Labs.)”, the absorbance at 405 nm in assay [1] amounted to 0.3; in [10] it was 0.45; in assay [3], 1.4.

With “POD-labeled anti-mouse IgG (goat anti-mouse IgG (H+L) antibody, Bethyl A90-116A, reduced and labeled with maleimidated POD)”, the fold of initial stage emission value against the horseradish POD-labeled antibodies in assay [11] is over 3 times; in assay [6], over 14 times. In addition, the initial stage emission value stood at 300000 RLU in [2] and 3.5e+06 RLU in assay [9].

(Values after patent US20110008814A1.)
